Assay results reported in the nanobody polyreactivity screen of Harvey et al. (2022).

Assay: yeast display, Sf9 membrane polyspecificity reagent, FACS + sequencing; frameworks hold sequencing errors
In short: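 Sorting gates, low and high (top ~1%), were placed on anti-HA fluorescence to track expression and on streptavidin fluorescence to track reagent binding. A clone's polyreactivity label is taken from the gate it came out of. The reagent was 10% biotinylated, detergent-solubilized Sf9 membrane, applied for 1 hour at 4 °C to galactose-induced yeast display cells.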

QVQLVESGGGLVQAGGSLRLSCAASGRIYFYNALGWYRQAPGKERELVATITRSGGRTYYADSVKGRFTISRDNAKNTVYLQMNSLKPEDTAVYYCAAYPTNNLYPNLEYWGQGTQVTVSS
polyreactivity (PSR sort gate): high polyreactivity

QVQLVESGGGLVQAGGSLRLSCAASGFTFGGNARGWYRQAPGKERELVAAIRRGGSTNYADSVKGRFTISRDNAKNTVYLQMNSLKPEDTAVYYCARDYRSYTGSYDTSYDYWGQGTQVTVSS
polyreactivity (PSR sort gate): high polyreactivity

QVQRVESGGGLVQAGGSLRLSCAASGRIFGKYAMGWYRQAPGKERELVAAIDGSGSTNYADSVKGRFTISRDNAKNTVYLLMNSLKPEDTAVYYCATDHAQKFRYRSPREYWGQGTQVTVSS
polyreactivity (PSR sort gate): low polyreactivity

QVQLVESGGGLVQAGGSLRLSCAASGRNFGAYTMGWYRQAPGKESELVAAISSSGGRTYYADSVKGRYTISRDNAKNTVYLQMNSLKPEDTAVYYCAASYSGRKDRYPHYDYWGQGTQVTVSS
polyreactivity (PSR sort gate): low polyreactivity

QVQLQESGGGLVQAGGSLRLSCAASCTISQEDWMGWYRQAPGKELEFVAAIGLGSNTNYADSLKGRFTISRDNAKNTVYLQMNSLKPEDTAVYYCAVSVWQYSDHVYRGQGTQVTVSS
polyreactivity (PSR sort gate): low polyreactivity

QVQLVESGGGLVQAGGSLRLSCAASGSIVEYYAMGWYRQAPGKERELVAAISTGGSTYYADSVKGRFTISRDNAKNTVYLQMNSLKPEDTAVYYCAAEDYHPGADTVGTGYDYWGQGTQVTVSS
polyreactivity (PSR sort gate): low polyreactivity

QVQLVESGGGLVQAGGSLRLSCAASGRTFQGYAMGWYRQAPGKERDLVAAISTSGARTYYADSVKGRFTISRDNAKNTVYLQMNSLKPEDTAFYYCAAGGQGGDFGDDYWGQGTQVTVSS
polyreactivity (PSR sort gate): high polyreactivity

QDQHVESGVGLVQEGGSLPLSCASSAFIIVKYAMGWYRKAPGKERELVAAITSGGSTSYADSVKGRFTISRDNAKNTVYLQMNRLKPEDTAVYYCAASTTAYAYVNYGYWGQGTQVTVSS
polyreactivity (PSR sort gate): low polyreactivity

QVQLVESGGGLVQAGGSVRLSCAASGFIFTDNAMGWYRQPPLKERELVAAINLSGTRTYYADSVKGRFTISLDNAKNTVSLQMNSLKPEDTAVYYCNISEDYSYEYWGQGTQVTVSS
polyreactivity (PSR sort gate): low polyreactivity

QGQLVESGGGLVQAGGSLRLSCAASGRISYYYAMGWYRQAPGKERELVAAISRRSTSTYYADSVKGRFTISRDYAKNTVYLQMNSLKPEDTAVYYCAARYIRAFSWRMDYWGQGTQVTVSS
polyreactivity (PSR sort gate): high polyreactivity

QDQLVESGGGLVQAGGSLSLICAASGFNFALYAMGWYRQAPGKERELVAAINWSGGRTYYADSVKGRFTISRDNAKNTVYLQMNSLKPEDTAVYYCNRRAFSPYAANYYYWGQGTQVTVSS
polyreactivity (PSR sort gate): high polyreactivity

QVQLVESGGGLVQAGGSLRLSCAASGLIFYKYAKGWYRQAPGKERELVAAISRGDNTYYADSVKGRFTISRDNAKNTVYLQMNSLKPEDTAVYYCAAYRWIYQSQYQGYWLDYWGQGTQVTVSS
polyreactivity (PSR sort gate): high polyreactivity

QVQLVETGGGLVQAGGSLRLSCAPSGIIISHYAKGWYRQAPGKETELVAAISSRGGSTYYADSVKGRFTISRDIAKNTVYLQMNSLKPEDTAVYYCATTDPYDSSYYIYYYWGQGTQVTVSS
polyreactivity (PSR sort gate): high polyreactivity

QVQLVESGGGLVLAGGSLRLSCPASGFTFRYYAMGWSRQAPGKDRELVAAISVSGGSTYYADSVKGRFTISRDNAKNSVYLQMNILKPEDTAVYYCNARRNVGFGYWGQGTQVTVSS
polyreactivity (PSR sort gate): high polyreactivity

QVQLVESGGGLVQAGGSLRLSCAASGSTFEHYAMGWYRQAPGKERELVAAISYTGGNTYYADSVKGRFTISRDNAKNTVYLQMNSLKPEDTAVYYCAAAPLYYHRRGYYYWGQGTQVTVSS
polyreactivity (PSR sort gate): high polyreactivity

QVQLVESGGGLVQAGGSLRLSCAASGSTSCSNAMGWSRQAPGKERELVAAITTGASTYYADSVKGRFTISRDNAKNTVYLQMNSLKPEDTAVYYCAADPWVLWSYYYWGQGTQVTVSS
polyreactivity (PSR sort gate): low polyreactivity

QVQLVESGGGLVQAGGSLRLSCAASGSIFGYYTMGWYRQAPGKERELVATINWSGGNTYYADSVKGRFTISRDNAKNTVYLQMNSLKPEDTAVYYCATRPRRGTSENGYWGQGTQVTVSS
polyreactivity (PSR sort gate): high polyreactivity

QVHLVESGGGLVQAGGSLRLSCAASGIIFTWYAMGMYRQAPGKEREMVAAISGSGDITYYADSVKGRFTISRDNAKNTVYLQMNSLKPEDTAVYYCAADPWTYWEDYDYWGQGTQVTVSS
polyreactivity (PSR sort gate): low polyreactivity

QVLLVESGGGIVQAGGSLRLSCSASGIIFPCYAMGWYRQAPGKERELLAAISSSGSSTYYADSVMGRFTITRDNAKNTVYLQMNSLKPEDTAVYYCAAVRYGMRRMDYWGQGTQVTVSS
polyreactivity (PSR sort gate): high polyreactivity

QVQLHESGGGLVQSGGSLRLSCAASGTISYAGPMGWYPQAPGKEREFVAGIGVGSNTNYADSVKGRYTIIRDNAKNTVYLQMNSLKPVDTAVYYCAVGGYAPLGRPYCGQGTQVTVSS
polyreactivity (PSR sort gate): low polyreactivity

QVQLVESGGGLVQAGGSLRLSCAASGSIFSHNVMVWYRQAPGKERELVAAISGGGGRTYYADSVKGRFTISRDNAKNTVYLQMNSLKAEDTAVYYCNAYVGLSEGDYWGQGTQVSVSS
polyreactivity (PSR sort gate): high polyreactivity

QVQLVESAGGLVQAGGSLRLSCAASGRIFGINSLGWYRQAPGKERELDAAISSGGSTYYADSVKGRFTISRDNAKYTVYILMNSEKPVDSAVYYCASDYDSSVCHDRGFWRDYWGQGNQVTVSS
polyreactivity (PSR sort gate): low polyreactivity

QVQLVESGGGLVQAGGSLRLSCAASGSTFNYNAMGWYRQAPGKERELVAAIRSSDGSTHYADSVKGRFTISRDNAKNTVYLQMNSLKPEDTAVYYCAADYDVWWRDDYWGQGSQVTVSS
polyreactivity (PSR sort gate): low polyreactivity

QVQLVESGGGLVQAGGSLRLSCAASGSTFGHYAMGWYRPAPGKERELVAVISRSGARTYYADSVKGRYTISRDNAKNTVYLQMNSLKPEDTAVYYCNAGPYGGNPFDYWGQGTQVTVSS
polyreactivity (PSR sort gate): high polyreactivity

QVQLVESGGGLVQAGGSLRLSCAASGSTFVIYAMGWYRQAPGKERELVASIRGRTGSTYYADSVKGRFTISRDNAKNTVYSQLNSLKPEDTAVYYCAAKPGYKSKMDYWGQGTQVTVSS
polyreactivity (PSR sort gate): high polyreactivity

QFQLVESGGGLVQAGGSLRLSCAASGSTFEKNAMGWYRQAPGKERDLVDAISNGVSTYYADSVKGRFTISRDNAKNSVFLQMISLKPEDTAVYFCAADLFFGAETVYYDKFDYWGQGTKVTVSS
polyreactivity (PSR sort gate): low polyreactivity

QVQLVESGGGLVQAGGSLRLSCAASGFYYYVMVWYRQAPGKERELVAGITASGGSTYADSVKGRFTISRDNAMYTVYLQMNSLKPEDTAVYYCAAGFVGTNYTLHGFSYEYWGQGTQVTVSS
polyreactivity (PSR sort gate): low polyreactivity

QVQLVESAGGLVQAGGSLRLSCAASGRTGVNAMGWYRQAPGKERGLVAAINTSVGRTYYADSVKGRFTISRDNAKNTVYLQMNSLKPEDTAVYYCNTDRLGAARYDYWGQGTQVTVSS
polyreactivity (PSR sort gate): low polyreactivity

QVQLVESGGGLVQAGGSLRLSCAASGFTFGRYAMGGYRQAPGKERELVAAITSRGGSTYYADSVKGRFTISRDNAKNTVYLQMNSLKPEDTAVYYCAAATNTGPRGYEYWGQGTQVTVSS
polyreactivity (PSR sort gate): high polyreactivity

QVQLVESGGGLVQAGGSLRLSCAASGRTFYYAMGWYRQAPGKERELVASITWSGGITTYADSVKGRFTISRDNAKNTVYLQMNSLKPEDTAVYSCAAQVIKGRTYQLGDYWGQGTQVTVSS
polyreactivity (PSR sort gate): high polyreactivity

QVQLVESGGGLVQAGGSLRLSCAASGSTFGSYAMGWYRQAPGTERELVAAISRAGSTYADSVKGRFTISRDNAKNTVYLQMHSLKPEDTAVYYCANRDNALYYGYDYWGQGTQVTVSS
polyreactivity (PSR sort gate): low polyreactivity

QVQHVETGGGLVQAGGSLRLSCAASGFIFSQYAMGWYRQAPGKERELVAAISSGSTYADSVKGRVTISRDNAKNTVYLQMNSLKPEDTAVYYCAVDYHQAWPSADYWFEYVYWGQGTQVTVSS
polyreactivity (PSR sort gate): low polyreactivity

EEELVESGGGLVQAGGSLRLSCAASGRTYPNTMGWYRQAPGKERELVAAITTSGTSTRYADSVKGRFTISRDNAKNTVYLQMNSLKPEDTAVYYCATRYSGKTYHYNYWGQGTQVTVSS
polyreactivity (PSR sort gate): high polyreactivity

QVQLVESGGGLVQAGGSLRLSCAASGRTFYGNAMGWYRQAPGKERELVAAINRDGGTYYADSVKGRFTISRDNAKNTVYLQMNSLKPEDTAVYYCNAVKRGIRYGYWGQGTQVTVSS
polyreactivity (PSR sort gate): high polyreactivity

QGQLVESGGGLVQAGGSLSLSCAASGFIFSGYAMGWYRQAPGKERELVAAISTRGGRTYYADSVKGRFTISRDNAKNTVYLQMNSLKPEDTAVYYCAADSLYPELDYWGQGTQVTVSS
polyreactivity (PSR sort gate): high polyreactivity

QVQLVESAGGLVQAGGSLRLSCAASGSILVLNAMGWSRQAPGKERELVAAITSRGTRTYYADSVKGRFTISRDNAKNTVYLQLNSLNPEDTAVYYCAAKAGYRYGSLAYYKYDYWGQGTQVTLSS
polyreactivity (PSR sort gate): high polyreactivity

QVQLVESGGGLVQAGGSLRLSCAASGSIFYYYAMGWYRQAPGKERELVAAITRSGNTYYADSVKGRFTISRDNAKNTVYLQMNSLKPEDTAVYYCAAEYGGGYGWGQGTQVTVSS
polyreactivity (PSR sort gate): high polyreactivity

QVQLVESGGGLVQAGGSLRLSCAASGFIFRYYAMGGYRQAPGKERELVAAISWSGVSTNYADSVKGRFTISRDNAKNTVYLQMNSLTPVDTAVYSCAADGTVRSLGRYYHWGQGTQVTVSS
polyreactivity (PSR sort gate): low polyreactivity

QVQLVESGGGLVQAGGSLRLSCAASGSTLATNAMGWYRQAPGKERELVAYADSVKGRFTISRDNAKNTVYLQMNSLKPEDTAVYYCNVEAPGRAQYGYPQGDYWGQGTQVTVSS
polyreactivity (PSR sort gate): low polyreactivity

QVQLVESGGGLVQAGASLRLSCAASGSIFAGYAMGWYRQAPWKERELVAAISWSGGGTYYADSVKGRFTISRDNEKNTVYLQMNSLKPEDTAVYYCNAYGYRHRGNGYWGQGTQVTVSS
polyreactivity (PSR sort gate): high polyreactivity

QVQLVESGGGLVQAGGSLRLSCAASGRIIVLYAMGWSRQAPGKERELVASIRSGGSTNYADSVKGRFTISRDNAKNTVYLQMNSLKPEETAVYYCAARPDHKRYDYWGQGTQVTVSS
polyreactivity (PSR sort gate): low polyreactivity

QVQHVESGGNLFKAGGSLRLSCAASGITFVYNAMGWYRPAPGKERELVDGITWSGSSTYYADSVKGRFTISRDNAKNTVYFHMNSLKPDDTAVYYCDAYLYDRTTRYTYYYWGQGTQVTVSS
polyreactivity (PSR sort gate): high polyreactivity

QVQLVESGGGLVQAGGSLRLSCGASGSIFRLNAMGWYRQAPGKERELVARIDSSGSTNYADSVKGRFTISRDNAKNTVYLQMNSLKPEDTAVYYCAAVLVLIVGMDSWGQGTQVTVSS
polyreactivity (PSR sort gate): low polyreactivity
